The results in this text go back to publication PMC5469345, “High Sensitivity Determination of TNF-α for Early Diagnosis of Neonatal Infections with a Novel and Reusable Electrochemical Sensor”.

The target in this data set is TNF-α (UniProt P01375 77-233). Description: electrochemical sensor (CV/EIS/DPV), displacement of aptamer from capture probe; aptamer pre-hybridized to capture probe T1 on gold electrode; 0.01 M PBS, 37 °C; TNF-α incubation in 0.01 M PBS pH 7.4, 37 °C, 2 h (1 h optimal); binding buffer listed as 10 mM Tris-HCl pH 7.4, 10 mM KCl, 10 mM MgCl2; DPV in 10x PBS. Conditions: protein: commercial; chain copies: 3; single strand; on the sensor pre-hybridized to thiolated capture probe T1 (S1), from which TNF-α displaces it.
Chain of TNF-α (P01375 77-233): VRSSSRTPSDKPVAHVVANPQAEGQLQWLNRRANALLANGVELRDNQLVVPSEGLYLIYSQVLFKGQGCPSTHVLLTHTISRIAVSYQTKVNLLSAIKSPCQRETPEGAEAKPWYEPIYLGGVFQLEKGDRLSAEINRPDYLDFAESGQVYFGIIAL

B1: TNF-α aptamer (T2) (ssDNA)
DNA: TTTTTTTTTTTTTTTTGGTGGATGGCGCAGTCGGCGACAA
Regarding B1, the binding result was “binds”.
